Experimental data from a protein production outcome set (Wang et al. 2014).

test: label from the status in PepcDB records

| Sequence | protein production |
| --- | --- |
| MSEAERAGASRQDKSGRLLAGRYRLGDVLGRGGMGTVWRAEDETLGRTVAVKELRFPTSIDEDEKRRLITRTLREAKAIARIRNNSAVTVFDVVDEDNRPWIVMELVEGKSLAEAIREDGLLEPKRAAEVGLAILDVLRAAHREGILHRDVKPSNVLIAEDGRVVLTDFGIAQVEGDPSITSTGMLVGAPSYISPERARGHKPGPAADLWSLGGLLYASVEGVPPYDKGSAIATLTAVMTEPLEEPKNAGPLRSVIYGLLAKDPEQRLDDAGARAMLNEVLHAPQPKEPEPVDATRVVALPPVPEEGTGKGSSGGSGAKRGEEAADRFRGALRSVRKAAGAATASAAARAKSGGTDVSGGTGAAGAGTSSAGSSASASAPAPGKPGAAAVGKPNPSSAGKPGSSAAATPAGTGSGVGQGTAVGGGGRESAVVGSNSGPVKPSSGWPVVPEPDRPPRSVPRAPLTDVVPRRTLVIVAVVVVLAVLGVVLALTLGGDDGSSKDNKGSSDTKAAASSGTSSGTTAGSSGTPKAGGSGSGSGGTHTDSGSKDNTGTGSDEQETDDSSSAGTASGSGGSDDSGSGSGDSSVKTYKSSQGFSIGLPKGWKYQSTGAAGARFTGPDGQKLLVGWTTTPKDDPVADWKNQEQYMVRSQYKRIRIEQVDYRGWNTADWEFTYTEGGTKYRSIDRGFVVNAHQGYALMYTAKASEWDSDLRKDTWQTLAKTFQPKS | failed |
| MSEAIRRAEAIDFGPDAQDLLWLSQDPVAVFDAEDRLRAANPAYCATFGCDPAEAPSWRQIMRRNHAMRQGALIVTEDFEGWLAAAAASRGRVPFRAYEAALHDGRWIWITETTAPDGRMLVHATDVTRLRSESLALRSERDAAQRASWTDPLTGVPNRRFVMDHLERWLDQQPRHGTFGTHALAVMDLDRFKQVNDLYGHTAGDAVLVSFCRITTDSIRSVDLFGRFGGEEFVLFMPNCPLETAQARLERLQEALAVAVVSPDLPALRCTFSAGLVAMRRDKDVHHAIRRADRLLYRAKADGRACVRAEI | failed |
| MSEAKWLSLLGLAARARQLLTGEEQVVKAVQNGQVTLVILSSDAGIHTKKKLLDKCGSYQIPVKVVGNRQMLGRAIGKHERVVIGVKDAGFSRKLAALIDE | not failed |
| MSEALSDSGLPPVQRVVTGHDAHGRAVFKSEDVTPTRMIPSGDASFLLVWTTATVPADNNDETDGRQREAGLTLDGGSVIRVVDMLPGKESPMHRTNSIDYGIVLEGEIELELDDGAKRTVRQGGIIVQRGTNHLWRNTTDKPCRIAFILIEAPAYLHNGQPLPEDKPDHK | not failed |
| MSEAPHLTFDLDTPGVSTGHLVVPKGADCEALSLPVFSCNRGEGPSLLITGGNHGNELQGPILARRLVKWLPEAQRCGRIIIVPEINPLAVQAWTRNTPIDGKNLNRVFPGRSDGSVSERIADAISRLLLPVVDTVLDLHSFGPTWDCAPSIISHPIADIDQMTKTVSISKAFKLPVTLLWEHNETDGMFDTLVHRQGKTFICTEFGGGVVSAEALTIYEAGVRNGLIALGLVKGKAEYPTFRQQKTGQTLETTSSDQLKSPSPGIFEPRCSVMDEVEQGDVVGVLHPMGSLSAASIDIRAQSKSTVFAIRSAMYVQGNEEVAILARPLAR | not failed |
| MSEEQDKQRNTRKKENNRLLTKAAIIGVVAGILGGGIAYGGLSAANLNSNTSSSTASSSSSNTGENGSVTTSSSGTTKVNKSKTTSGTMTSAYKKVQNAVVSVLNYKYTSSSSSSSDIYSMFGYGDSDSSDSSSSKKSLTLYSEGSGVIYTTANGKGYIVTNNHVISGAAKVKVILASGKTIAAKVVGKDSTSDLAVLSIDSKYVTQTASFGDSRSLLSGQTVIAIGSPEGSEYASTVTQGIISSPSRTITYNSNQMTVIQTDAAINSGNSGGPLVNSDGQVIGINSMKLSSSSSGDSVEGMGFAIPSNEVVTIVNQLVKKGKITRPQLGIKVAAIADLNSYYKKQLGISTSLKKGLYVASVTSGSAAASAGIKKGDVITAADGKTVNDVATLHSILYSHNVGDKVKITVNRNGKTMTFTVTLQASN | failed |
| MSEGFSSSSIQELYQSLKEITNNADVELFEDRITKLDFESTDEPKHANDIIKDRFLRPSNALPWSLLDMVQDVPHTSSPEDCSGKLDYKELLKVPDPINRTSYQFKRTGLEGKISGYKEEVDLKEVANANASNSLSITRSINHNQNSVRGSTAQLPFTPGGIPMKSVKTDSEQNGSSTMANATKLLHKDGQGLFDIPEGMNRGIKPMDSPAENEDQNGQFKELKQLNEIDNELDIRIEANEAKLKEEEKSAKSISEEIMEEATEETTADNADDAEIDELLPIGIDFGRTKPVSKSVPVKKEWAHVVDLNHKIENFDELIPNPARSWPFELDTFQKEAVYHLEQGDSVFVAAHTSAGKTVVAEYAIAMAHRNMTKTIYTSPIKALSNQKFRDFKETFDDVNIGLITGDVQINPDANCLIMTTEILRSMLYRGADLIRDVEFVIFDEVHYVNDQDRGVVWEEVIIMLPQHVKFILLSATVPNTYEFANWIGRTKQKNIYVISTPKRPVPLEINIWAKKELIPVINQNSEFLEANFRKHKEILNGESAKGAPSKTDNGRGGSTARGGRGGSNTRDGRGGRGNSTRGGANRGGSRGAGAIGSNKRKFFTQDGPSKKTWPEIVNYLRKRELLPMVVFVFSKKRCEEYADWLEGINFCNNKEKSQIHMFIEKSITRLKKEDRDLPQILKTRSLLERGIAVHHGGLLPIVKELIEILFSKGFIKVLFATETFAMGLNLPTRTVIFSSIRKHDGNGLRELTPGEFTQMAGRAGRRGLDSTGTVIVMAYNSPLSIATFKEVTMGVPTRLQSQFRLTYNMILNLLRIEALRVEEMIKYSFSENAKETLQPEHEKQIKVLQEELQTIEYKSCEICDNDIEKFLELMLAYKEATVNLMQEMVKSPSILHILKEGRLVAFRDPNDCLKLGFVFKVSLKDAVCVIMTFTKPYKLPNGEPNHLIYFPKADGYRRRNFPKFQKTDFYMEEVPVTAIEVITKRKFAAPLGKVIKKDVAALNEFNAETNNILDGKTLKEAINIEKQGLKIHQILLDRTNIRDEIFKLKSIKCPNLSQHIVPKFKAHVIKKKIEELYHLMSDQNLSLLPDYEKRLAVLKDTEFIDQNHNVLLKGRVACEINSGYELVLTELILDNFLGSFEPEEIVALLSVFVYEGKTREEEPPIVTPRLAKGKQRIEEIYKKMLCVFNTHQIPLTQDEAEFLDRKRFAMMNVVYEWARGLSFKEIMEMSPEAEGTVVRVITWLDEICREVKTASIIIGNSTLHMKMSRAQELIKRDIVFAASLYL | failed |
| MSEKAKKGFKMPSSYTVLLIIIAIMAVLTWFIPAGAFIEGIYETQPQNPQGIWDVLMAPIRAMLGTHPEEGSLIKETSAAIDVAFFILMVGGFLGIVNKTGALDVGIASIVKKYKGREKMLILVLMPLFALGGTTYGMGEETMAFYPLLVPVMMAVGFDSLTGVAIILLGSQIGCLASTLNPFATGIASATAGVGTGDGIVLRLIFWVTLTALSTWFVYRYADKIQKDPTKSLVYSTRKEDLKHFNVEESSSVESTLSSKQKSVLFLFVLTFILMVLSFIPWTDLGVTIFDDFNTWLTGLPVIGNIVGSSTSALGTWYFPEGAMLFAFMGILIGVIYGLKEDKIISSFMNGAADLLSVALIVAIARGIQVIMNDGMITDTILNWGKEGLSGLSSQVFIVVTYIFYLPMSFLIPSSSGLASATMGIMAPLGEFVNVRPSLIITAYQSASGVLNLIAPTSGIVMGALALGRINIGTWWKFMGKLVVAIIVVTIALLLLGTFLPFL | failed |
| MSEKMRRIVEAAGGIVWRWKAGSDIANDPAIASSKSAQEQLDSIEVCIVHRPKYDDWSWPKGKLEQNETHRHAAVREIGEETGSPVKLGPYLCEVEYPLSEEGKKTRHSHDCTADTKHTLYWMAQPISADDAEHLLDAFGPVHRADVGEINDIVWVSVREARKILSHSTDKDTLAVFVDRVQEGAATAQNLLIVRHAKAESRKSWKGTDANRPITPKGAAMAFALNRELACFNPTRLATSPWLRCQETLQVLSWQTERPMEHINTLTEDAFAEHPAVSWLAFREQITQTLNSRETTAICMHRPVIGGMYDHLRGLCARKQLAKQLIAKSPYMPTGTAMSLFIIDTPQGPSIIDIQKVSPIVY | failed |
| MSELNKEMTLLPPPELVQYVGGDFKKVGKEFLKHFIQIGALKSNEKVLDVGCGVGRMAVPLMNYLNDDGAYYGFDLFKDGITWCQNNISTMRNNFHFEHVDIYNQFYNPEGKEDASQYRFPYEDGTFDFIFLTSVFTHLLPKELEHYVSEIVRVLKKDGRCFITFFLINPESSYYLNAGQSTLGFYHRIENCYVVNKDIPNFAVAYPETDICNLLNKYGLEIINKPHYGLWCGRHEYTSYQDIVLTKKSFLEHHHHHH | not failed |
| MSELQILIFNAAVFSILAVYHYWKNRKLNIAFYILAYYSICAWGALLYHEHELFHYMRGRETYSIIPFLYLIPVIFLFAYPIIRYDNTRITRIETLNSNFFINLVWILLFIQIVLYIILFPSFLKAILSSNIGDYRNDTYDESEIVQFPNYFFNILCRLYMGARNVVILIAAYGLLVIKTHRKLLKIFLVTSLCFPVYMFTAYASRAVMIMTFFFLVFIFVFLSVFMNVGLKKKIVSYLILILVPISSAFILISNSRFGNLATYMFYRYLGESFNNYNTHFFYELKGNTWGEAYFVFFRKLMGISSNFKTTREKWEWLDNITGVDTHVFYTFVGGLNIEFGFVGTIVIGLLLSFFMVKKMRPYNVLTLPKFIALGMLAYTLINGVFFFVLQGDWGNLEILFTLFFCFLFSKYRTRKYINK | failed |
| MSENENSQEKNELLDALNSVEEVNVGDVVKGEVLAIDDDKQVIVGIQGTGVEGVVPLKELSTQRVDDVNEAAKVGDVLDLVVISRIGSDKENGSYLLSHRRLEARKVWDDVEKEYEAGHTIKAPVTQVVKGGLVVDAGVRGFIPASMIDDHYVEDLNAYKGQELELKIIEIEPSENRLILSHRAVVEKQREAQREEALKTLQAGDVVEGKVARLTNFGAFVDLGGIDGLVHVSEISYERVEKPADVLKVGQEVTVKILSVDADRERVSLSIKATLPEPWDGIEEKAPQGAVLDGKVKRLTSFGAFVEVFPGVEGLVHISQISHQHIATPNDVLKVGQEIKVKVLDVRPDEKRLALSIKALEEKPQTADDDNESQPERRSNNNRRRNNNRDNRTASERSTANAPEESTGFTLGDLIGDELKNAESNNDENLEHHHHHH | failed |
| MSENEPAQMIEGRYRIVRNIAEGGMATVYEAIDERLGRTVAIKVMHTQLAKGPHREQFVERFRREANSAASIANPHIVQVYDTGEFNGLDFLVMEYVHGVNLRHEMNAQGTFSVRETLRVVAETLDGLASAHRAGVVHRDIKPENILINDRGHVQITDFGLAKAASQATLSSTGMLLGTAAYLAPEMIENNQATAQGDLYSVGIMAWEMLTGKVPFDSDNPVTLVFKHVHEDVPSVATVCQGIDPSVAAFIAHLTARQVDVRPTDGAAAAEELSQLAAKLPLEAWQYRLHAEPIGGDHTDATAAALVGNIAEQAPLTGVPAGAATFEPSVPAFLADDVASNTADTGGAADVNPPAPPVAPTTALDSSTPADASAPHKTQIMAQSGSETQVLPQAGDAFTRAPALSDEPDVASNGTGPKKQRSKNRFIVLVIVLVLAAIGGTAGWWWFAGPGSYWSVPKPDDVTCDANAGTECSLTGADWATYESTLKAFGIPYKTHEEYSDDVAEGKIISSSVNKTKAVVNSHISKRANQELTVVVSKGVRMATIPKDILDANSANGKNPLNALKKAGFDNVKHDESKDEYSMDTPQGVALTISPDPGTTAKHNDEVTITLSKGPMPVTMPDIVGKTQYEMQAALGELKLTANVTEQYDDKVEAGQVISASQEAGAQLKWGDSVDVVISKGPEMATIPSGLVGKQESAVTKTLESLGFKVKADKVLGGLFGTVRTVKSGDTDLSNGGKTRLRDANGNPTVITLTIV | failed |
